Among the data in a protein production outcome set (Wang et al. 2014) are protein production values, retold here.
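Also: failed if final PepcDB status was selected cloned or expressed and not failed if soluble or beyond.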

This series in a line: label from the status in PepcDB records.
For “MGRNDPLAAYNAKRDFARTAEPAGKRKSSATGNLFIVQKHDATRLHWDFRMEVDGVLKSWAVTRGPSPDPDDKRLAVQTEDHPLEYARFEGIIPEGEYGGGTVMLWDKGTWEPVEGKSAKDLEKGHLHFRLEGERMKGEWLLVRLKRRGNEKRDNWLLRKLDDAYAGQGDQLVERGLTSVLTGRTMAEIASDKAGSHSLKGKRGKAFASVMEEAGTHNRKVGKARGKAPSRARRNAPLPAFQPVQLATLVDTVPDGRQWLYEIKFDGYRALVAVRGTEVRVFTRSGLDWTEKFAPLARHLAGLKLPSCLIDGEIVAADADGNPDFSRLQAVLKRGHGEQGEGDALSFHAFDLLELEGEDLKPLPNVERKQKLAALLAGVSPPIHVADHIIGGGEKLLGALCGAGQEGIICKRADAAYAGKRTQNWLKVKCVARQEFIVVGFTRSSARRRPFASLLLAQREGKALVYKGKVGTGFDEDLLQDLATRFEALKVDEGPLDVPITEARGVTWLKPELVAEIAFAEFTAEGRVRHASFVGLREDKKAADVVPERPAPLVVQPEIVPISNRERVIFPESGQTKGDLADYYAAMAPAMLPFIANRPVSLVRCPQGRARHCFFQKHDSGSFGEHVHHVPIREKDGNEEEYLFVSDAAGILSCVQMGTIEFHGWCSLASDVEAPERMVIDLDPDEGLDFNDVKRAARDIRDRLSDLGLVSFAMLSGGKGVHVVVPLRPDHTWEAHASFAERFARALALAEPDRYVATMSKARRKGRIFIDWLRNRRGSTAVMPYSARARANAPVAVPIAWEELDDFANAHPFCIGDTAGLLKRSEGKSLRGWGMAQQSLPDV”, the protein production result is given as “failed”.

In the case of “MGRTVVVLGGGISGLAASYHLSRAPCPPKVVLVESSERLGGWIRSVRGPNGAIFELGPRGIRPAGALGARTLLLVSELGLDSEVLPVRGDHPAAQNRFLYVGGALHALPTGLRGLLRPSPPFSKPLFWAGLRELTKPRGKEPDETVHSFAQRRLGPEVASLAMDSLCRGVFAGNSRELSIRSCFPSLFQAEQTHRSILLGLLLGAGRTPQPDSALIRQALAERWSQWSLRGGLEMLPQALETHLTSRGVSVLRGQPVCGLSLQAEGRWKVSLRDSSLEADHVISAIPASVLSELLPAEAAPLARALSAITAVSVAVVNLQYQGAHLPVQGFGHLVPSSEDPGVLGIVYDSVAFPEQDGSPPGLRVTVMLGGSWLQTLEASGCVLSQELFQQRAQEAAATQLGLKEMPSHCLVHLHKNCIPQYTLGHWQKLESARQFLTAHRLPLTLAGASYEGVAVNDCIESGRQAAVSVLGTEPNS”, the protein production result is “failed”.

In the case of “MGSCMKWDYGEMEDFSVSASGLFITNEGNFQYSNATLSYYDPATCEVENEVFYRANGFKLGDVAQSMVIRDGIGWIVVNNSHVIFAIDINTFKEVGRITGFTSPRYIHFLSDEKAYVTQIWDYRIFIINPKTYEITGYIECPDMDMESGSTEQMVQYGKYVYVNCWSYQNRILKIDTETDKVVDELTIGIQPTSLVMDKYNKMWTITDGGYEGSPYGYEAPSLYRIDAETFTVEKQFKFKLGDWPSEVQLNGTRDTLYWINNDIWRMPVEADRVPVRPFLEFRDTKYYGLTVNPNNGEVYVADAIDYQQQGIVYRYSPQGKLIDEFYVGIIPGAFCWKLEHHHHHH”, the protein production entry is “failed”.

In the case of “MGSDVHVWKTWFITSSDRGFTWSTPAPLVNDDILPRGPVKNKLLLASNGAWIAPGSIESPERWRAFVDRSSDEGKHWSISFVPLEPDNAISGTNVALWDGIKKGRLWECCLENLLRWDGVIQPTLWESSPGHIHMLLRSTRGAIFRSDSIDYGATWSVARATSLPNNNSGIDLVSMQDGTLILALNPVNGNWGKRYPLSLIASQDNGESWLPLLDLESDHGEYSYPAIISEGGIVHITYTWNRKLEHHHHHH”, the protein production result is on record as “not failed”.

Turning to “MGSEDHGAQNPSCKIMTFRPTMEEFKDFNKYVAYIESQGAHRAGLAKIIPPKEWKPRQTYDDIDDVVIPAPIQQVVTGQSGLFTQYNIQKKAMTVGEYRRLANSEKYCTPRHQDFDDLERKYWKNLTFVSPIYGADISGSLYDDDVAQWNIGSLRTILDMVERECGTIIEGVNTPYLYFGMWKTTFAWHTEDMDLYSINYLHFGEPKSWYAIPPEHGKRLERLAIGFFPGSSQGCDAFLRHKMTLISPIILKKYGIPFSRITQEAGEFMITFPYGYHAGFNHGFNCAESTNFATLRWIDYGKVATQCTCRKDMVKISMDVFVRILQPERYELWKQGKDLTVLDHTRPTALTSPELSSWSASRASLKAKLLRRSHRKRSQPKKPKPEDPKFPGEGTAGAALLEEAGGSVKEEAGPEVDPEEEEEEPQPLPHGREAEGAEEDGRGKLRPTKAKSERKKKSFGLLPPQLPPPPAHFPSEEALWLPSPLEPPVLGPGPAAMEESPLPAPLNVVPPEVPSEELEAKPRPIIPMLYVVPRPGKAAFNQEHVSCQQAFEHFAQKGPTWKEPVSPMELTGPEDGAASSGAGRMETKARAGEGQAPSTFSKLKMEIKKSRRHPLGRPPTRSPLSVVKQEASSDEEASPFSGEEDVSDPDALRPLLSLQWKNRAASFQAERKFNAAAARTEPYCAICTLFYPYCQALQTEKEAPIASLGEGCPATLPSKSRQKTRPLIPEMCFTSGGENTEPLPANSYIGDDGTSPLIACGKCCLQVHASCYGIRPELVNEGWTCSRCAAHAWTAECCLCNLRGGALQMTTDRRWIHVICAIAVPEARFLNVIERHPVDISAIPEQRWKLKCVYCRKRMKKVSGACIQCSYEHCSTSFHVTCAHAAGVLMEPDDWPYVVSITCLKHKSGGHAVQLLRAVSLGQVVITKNRNGLYYRCRVIGAASQTCYEVNFDDGSYSDNLYPESITSRDCVQLGPPSEGELVELRWTDGNLYKAKFISSVTSHIYQVEFEDGSQLTVKRGDIFTLEEELPKRVRSRLSLSTGAPQEPAFSGEEAKAAKRPRVGTPLATEDSGRSQDYVAFVESLLQVQGRPGAPF”, the protein production entry is on record as “failed”.

For “MGSELYLMFFAAITLLAILNPFGNLTQFLAMSDGLPLMLRKKLFRTILYTAFTIVLVFLLSGPLFMNYIFRVSLDDLRVSGGLVLIIMAIKNLLFSTKIATKDFSSYQDMDDKEILRQSLIPMAFPMLVGPGTLASVIVIAEDGGLDVALGGVMIAFIFMFILFHFAATIEKIVGKLILHVFSRIAQVFIVAMGFKMIIVGLKDIFNL”, the protein production result is given as “failed”.

For “MGSFHRRTFSYDKLPNEPIRLSVLKLDGSSFDVYVLTSATVGDLKVAIETAFSHVPKKGPSKISWSHVWGHFCLCFGGQKLITDTDCIGNYGMKDGDEVRFKNHVSGNAVLSKGYSRKSKQKNLERVLPKDGDEVLNRIEEIDDSWDDLERGGLVMYKDDDMETSSNESNRSCLSTVHGCCFAFGLKELLGFGNDRAYYSLRDTWRDD”, the protein production entry is recorded as “failed”.

For “MGSGPTGLRGTGRQLLALERDVLVLSVAMFAFSLGFQMTSRYIPRYMSVLGAGAVAIGLFGAFGNLISALYPYPGGAVSDRIGSRTALTLFGLLSTAGFLIWLFADAFGTVVVPPVGTEREVFGREVVIGWLEPAVVPVGIFLGLVFAQAWKSFGLGATFAIVKQSVSPDQLATGFASTETFRRTAFLLGPLLAAGILAVFTFEVGFRIVLAVAAAFGLVATLAQHFLYDASEDTLGKSFAGVSAVVDDLRSMPSELRPLLVADTLVRFGNGMVYVFFIIVVTEFLEVGVSLPVVGRLSPDAYFGVLLAIEMLVALLIMLPVSRLSRRVGLKPVVAVGFAVYAIFPAVLIYAPDNAAVLALLFAVSGLRFAGLPAHKALIVGPAESGSGGRVTGSYYLVRNVVVIPSAAIGGAIYAVSPETAFLTATAIGLAGLVVFLAFGREFEAAVAG”, the protein production entry is reported as “failed”.

For “MGSMLLNGAKMKYGNLSLKCMVQNQKALNFYLSQGFEIVSQVDDELGGYYYMSFVAQT”, the protein production result is “failed”.

With “MGSQGGIVSIDAKIDASVMIGKDAVVFPDANIAERACIAEKVCIGNAVRIGKHAMIDHGASIGDRSNIGERSRIYQDSFIGENAVIAARACIGEKVYIGNFVSLAKDSIIDDGVNIGERSSIGERTRIRQGSFIRKGCVIRQRSVIAKRAYIDEGVYIGNVVRILEHHHHHH”, the protein production entry is on record as “failed”.

Consider “MGSSHHHHHHSSGENLYFQGHMKTADLCDQFLDELQVCELPFQSYGGKRMFSGPIATVDVFEDNVLVREALETVPPGTVLVVDGKGSRRVALLGDRLAQIACERGLAGVIIHGCIRDSAEIGAMPIGVMAIGTCPVKSKKEGKGARDVVLEFGGVRWEPGAYVYADADGVVVANKDLLAKNG”, for which the protein production result is “not failed”.

For the sequence “MGSTHHHHHHSSGRENLYFQGHMEEEMQRHIKLTPSQTTPVVLVVGDPGRVDKVKMLCDSYVDLAYNREYKSVECTYKGQKFLCVSHGVGSAGCAICFEELMNNGAKVIIRAGSCGSLQPTQMKRGDICICNAAVREDRVSHLMIYSDFPAVADFEVYDTLNKVAQELEVPVFNGISLSSDLYYPHKIIPTRLEDYSKANVAVVEMEVATLMVMGTLRKVKTGGIFIVDGCPLKWDEGDFDNNLVPEKLENMIKISLETCARLAKKY”, the protein production result is “not failed”.

For “MGSVQLSGSGLVASLPPNHSFSHKTKLNKPNSYFFRSKHNAARTKTVRAISTAPASQPPAADEPDEPPAVDFAFVHSVLLPDGTPDVHWRRANGGQKLRDIMLDSNIELYGPYSKPLSNCAGVGTCATCMVEIVNGKELLNPRTDIEKEKLKRKPKNWRLACQTNVGNPDSTGLVVIQQLPEWKAHEWNIPKNIPNDDDLETST”, the protein production result is recorded as “failed”.

In the case of “MGTEVSTSPTSLIDQTVVPGDVVLDLSNMTNQTIKLGSGLRQDNEVISVMRAGKLRYSKPNKYWVESSHKRYVPRPEDHVLGIVVDCKGENYWIDIKGPQLALLPVLAFEGANRRNYPKFEVSTLLYTRVVKTNTGMNPELSCVDESGKAAGFGPLKDGFMFETSTGLSRMLLSSPTCPVLEALGKKLSFETAFGLNGRCWVHAAAPRIVIIVANALMNSETLSGTQQRIMVEKLLEKISD”, the protein production entry is “failed”.

As for “MGTLPARRHIPPWVKVPEDLKDPEVFQVQTRLLKAIFGPDGSRIPYIEQVSKAMLELKALESSDLTEVVVYGSYLYKLRTKWMLQSMAEWHRQRQERGMLKLAEAMNALELGPWMK”, the protein production result was “failed”.

In the case of “MGTVSKALSLLALFNHGRLEMGLSELTRLSGMNKATVYRMMTELQAAGFVEQMNGDRAYRLGPEVLRLAALREAAVPLLSVSRDVLRRLCDETGETSHMSIQRNGQLTTLTHAYSSHHGTRVAMEDAEILSLHATGSGLAFLAFSSEEVVEHALSAPLIKHTPQTETDPARLRQALAEAQQSGVAESVGGFEADVHSHAAPIFGADQRPIGALAVAAPVSRMTAELKSRVRAALKEAALDLTQRTGGFCPPGYPGAA”, the protein production entry was “failed”.

On to “MGVHIDSVVFSRAGALLTLKDEAEISEIRVYSESEEIASQEIGKNKDNVFVSFNWDPEARYRFEVITGSGASGTIEAYAPSKPALKKEYTIELEDVTPGDIEKTSTNVEGALKFSPDSEYLAIGTNGGSLKLIKVATGEKVWEKQLVKGIADARIADIEFSEDGKRLFVGEESPDAFLYCFDLEGTEIWKYGAGKELGSDLKYMPAMKKIKLDSEGNIYVAASRACGYIGEKYKYLARIYSFDPEGNLRWKFPESEYMDSGVTWIDATPDGKYAVFGTTCFTETEKWREGTVHALNGNTGQEHWSYKIQPVEPFFDYSAIWYSTQITPDGEKLITMTSDGRAFLFNNSRIIETGTPEITWQQNISTPIVVSGVPIYGSANYAYIVNDTLIFSIGSTFSKDKNKDAPFEHPSGNSLFAYDYDGNLLWKWRVDGYAGECAVNDRYLVIPLAQNLVTEDRSVHGVYVFDASKSGGASSRLIQTYNTEGITVSADISPDGRYIAALEAPSRLDDGTVLGEYKVHILTLEHHHHHH”, for which the protein production result was “not failed”.
